Data as given in publication PMC4139326, “Functional Roles of the Dimer-Interface Residues in Human Ornithine Decarboxylase” (PLoS ONE, 2014).
Substitutions are numbered along the chain they refer to. In names and notes the source's numbering stands. Read-outs that look alike come from different tables or passages of the source.

Key:
[1] = molecular target: antizyme inhibitor (Homo sapiens) (UniProt O14977); details: cited from earlier work
[2] = molecular target: ornithine decarboxylase (Homo sapiens) (UniProt P11926); details: cited from earlier work
Sequence of ornithine decarboxylase (Homo sapiens) (P11926 whole entry): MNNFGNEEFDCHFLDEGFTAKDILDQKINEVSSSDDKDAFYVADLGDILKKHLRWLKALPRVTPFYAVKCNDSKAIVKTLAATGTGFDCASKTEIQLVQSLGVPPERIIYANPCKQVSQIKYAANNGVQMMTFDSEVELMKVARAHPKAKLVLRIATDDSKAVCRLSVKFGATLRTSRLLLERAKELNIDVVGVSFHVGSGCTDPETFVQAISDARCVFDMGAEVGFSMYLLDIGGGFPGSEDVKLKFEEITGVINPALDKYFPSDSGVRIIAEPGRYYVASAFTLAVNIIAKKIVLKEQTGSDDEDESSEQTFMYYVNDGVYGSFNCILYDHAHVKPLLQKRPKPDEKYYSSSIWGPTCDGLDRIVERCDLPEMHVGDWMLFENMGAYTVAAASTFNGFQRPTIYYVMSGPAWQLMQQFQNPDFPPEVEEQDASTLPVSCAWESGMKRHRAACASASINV

[3] = molecular target: antizyme inhibitor (Homo sapiens) (UniProt O14977); details: cited from earlier work; remark: listed apart in the source
[4] = molecular target: ornithine decarboxylase (Homo sapiens) (UniProt P11926); details: cited from earlier work; remark: listed apart in the source
[5] = molecular target: the molecule itself; experiment: AUC; sedimentation velocity, 0.3, 0.6 and 0.9 mg/ml protein in 50 mM Tris-HCl pH 7.5, 293 K, 42,000 rpm; global fit to a monomer-dimer equilibrium model (SEDPHAT); dimer to monomers
[6] = molecular target: T1, human antizyme inhibitor (human), O14977; experiment: as above; details: remark: other sources report otherwise
T1 chain: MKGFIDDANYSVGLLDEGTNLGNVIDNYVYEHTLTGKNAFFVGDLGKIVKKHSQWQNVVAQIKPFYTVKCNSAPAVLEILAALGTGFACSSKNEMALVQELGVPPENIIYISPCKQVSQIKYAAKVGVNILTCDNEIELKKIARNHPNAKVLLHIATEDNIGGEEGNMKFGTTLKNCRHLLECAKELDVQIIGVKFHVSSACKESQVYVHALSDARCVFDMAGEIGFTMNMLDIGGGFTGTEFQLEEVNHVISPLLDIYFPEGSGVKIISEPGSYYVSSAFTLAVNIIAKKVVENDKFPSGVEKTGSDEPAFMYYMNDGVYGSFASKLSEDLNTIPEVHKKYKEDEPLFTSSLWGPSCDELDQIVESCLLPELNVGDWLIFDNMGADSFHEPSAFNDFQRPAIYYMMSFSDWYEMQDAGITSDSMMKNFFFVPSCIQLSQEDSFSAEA

Molecule: antizyme inhibitor (from UniProt O14977)
- Kd [1]: 84 µM

Molecule: ornithine decarboxylase (from UniProt P11926)
- Kd [2]: 0.18 µM

Molecule: antizyme (from UniProt P54368)
- Kd [3]: 0.02 µM
- Kd [4]: 0.2 µM

B1: human ornithine decarboxylase, wild type (enzyme)
chain: EEFDCHFLDEGFTAKDILDQKINEVSSSDDKDAFYVADLGDILKKHLRWLKALPRVTPFYAVKCNDSKAIVKTLAATGTGFDCASKTEIQLVQSLGVPPERIIYANPCKQVSQIKYAANNGVQMMTFDSEVELMKVARAHPKAKLVLRIATDDSKAVCRLSVKFGATLRTSRLLLERAKELNIDVVGVSFHVGSGCTDPETFVQAISDARCVFDMGAEVGFSMYLLDIGGGFPGSEDVKLKFEEITGVINPALDKYFPSDSGVRIIAEPGRYYVASAFTLAVNIIAKKIVLKEQTGSDDEDESSEQTFMYYVNDGVYGSFNCILYDHAHVKPLLQKRPKPDEKYYSSSIWGPTCDGLDRIVERCDLPEMHVGDWMLFENMGAYTVAAASTFNGFQRPTIYYVMSGPAWQLMQQFQNPDFPP
notes: ornithine decarboxylase (ODC), human; cDNA cloned into pQE30; Written as the protomer; it associates with itself to the dimer; also called ODC
- Kd [5]: 0.1 ± 0.001 µM

B2: human ornithine decarboxylase Y389D (enzyme)
chain: B1 chain with Y383D
notes: ornithine decarboxylase (ODC), human; cDNA cloned into pQE30
- Kd [5]: 0.69 ± 0.005 µM

B3: human ornithine decarboxylase Y331S/Y389D/R277S/D332E/K294A (enzyme)
chain: B1 chain with R271S, K288A, Y325S, D326E, Y383D
notes: ornithine decarboxylase (ODC), human; cDNA cloned into pQE30; also called [ODC_4M]+K294A
- Kd [5]: 0.26 ± 0.06 µM

B4: human ornithine decarboxylase Y331S/Y389D/R277S/D332E/V322D/D134A (enzyme)
chain: B1 chain with D128A, R271S, V316D, Y325S, D326E, Y383D
notes: ornithine decarboxylase (ODC), human; cDNA cloned into pQE30; also called [ODC_4M]+[V322D/D134A]; sextuple mutant
- Kd [5]: 52.8 ± 0.5 µM

B5: human ornithine decarboxylase Y331S/Y389D/R277S (enzyme)
chain: B1 chain with R271S, Y325S, Y383D
notes: as for B2
- Kd [5]: 1.03 ± 0.004 µM

B6: human ornithine decarboxylase K294A (enzyme)
chain: B1 chain with K288A
notes: as for B2
- Kd [5]: 0.1 ± 0.008 µM

B7: human ornithine decarboxylase Y331S/Y389D (enzyme)
chain: B1 chain with Y325S, Y383D
notes: as for B2
- Kd [5]: 0.16 ± 0.001 µM

B8: human ornithine decarboxylase R165E (enzyme)
chain: B1 chain with R159E
notes: as for B2
- Kd [5]: 0.11 ± 0.001 µM

B9: human ornithine decarboxylase Y331S/Y389D/R277S/D332E/D134A (enzyme)
chain: B1 chain with D128A, R271S, Y325S, D326E, Y383D
notes: ornithine decarboxylase (ODC), human; cDNA cloned into pQE30; also called [ODC_4M]+D134A
- Kd [5]: 13.3 ± 0.04 µM

B10: human ornithine decarboxylase Y331S/Y389D/R277S/D332E/V322D (enzyme)
chain: B1 chain with R271S, V316D, Y325S, D326E, Y383D
notes: ornithine decarboxylase (ODC), human; cDNA cloned into pQE30; also called [ODC_4M]+V322D
- Kd [5]: 25.2 ± 0.03 µM

B11: human ornithine decarboxylase V322D (enzyme)
chain: B1 chain with V316D
notes: as for B2
- Kd [5]: 0.56 ± 0.012 µM

B12: human ornithine decarboxylase D134A (enzyme)
chain: B1 chain with D128A
notes: as for B2
- Kd [5]: 0.12 ± 0.012 µM

B13: human ornithine decarboxylase D332E (enzyme)
chain: B1 chain with D326E
notes: as for B2
- Kd [5]: 0.03 ± 0.007 µM

B14: human ornithine decarboxylase R277S (enzyme)
chain: B1 chain with R271S
notes: as for B2
- Kd [5]: 0.08 ± 0.006 µM

B15: human ornithine decarboxylase K169A (enzyme)
chain: B1 chain with K163A
notes: as for B2
- Kd [5]: 0.3 ± 0.008 µM

B16: human ornithine decarboxylase Y331S (enzyme)
chain: B1 chain with Y325S
notes: as for B2
- Kd [5]: 1.1 ± 0.008 µM

B17: human ornithine decarboxylase Y331S/Y389D/R277S/D332E (enzyme)
chain: B1 chain with R271S, Y325S, D326E, Y383D
notes: ornithine decarboxylase (ODC), human; cDNA cloned into pQE30; also called ODC_4M
- Kd [5]: 15.9 ± 0.08 µM

B18: human ornithine decarboxylase Y331S/Y389D/R277S/D332E/R165E (enzyme)
chain: B1 chain with R159E, R271S, Y325S, D326E, Y383D
notes: ornithine decarboxylase (ODC), human; cDNA cloned into pQE30; also called [ODC_4M]+R165E
- Kd [5]: 13.5 ± 0.45 µM

B19: human ornithine decarboxylase Y331S/Y389D/R277S/D332E/K169A (enzyme)
chain: B1 chain with K163A, R271S, Y325S, D326E, Y383D
notes: ornithine decarboxylase (ODC), human; cDNA cloned into pQE30; also called [ODC_4M]+K169A
- Kd [5]: 1.49 ± 0.04 µM

B20: human antizyme inhibitor, O14977 1-448 (natural protein)
chain: T1 chain
- Kd [6]: 72.3 µM
